Data reported in IntAct's records for PubMed 16614222.

B1: Phospholipase D alpha 1 (Arabidopsis thaliana (Mouse-ear cress)), Q38882 (parent)
chain: MAQHLLHGTLHATIYEVDALHGGGVRQGFLGKILANVEETIGVGKGETQLYATIDLQKARVGRTRKIKNEPKNPKWYESFHIYCAHLASDIIFTVKDDNPIGATLIGRAYIPVDQVINGEEVDQWVEILDNDRNPIQGGSKIHVKLQYFHVEEDRNWNMGIKSAKFPGVPYTFFSQRQGCKVSLYQDAHIPDNFVPRIPLAGGKNYEPQRCWEDIFDAISNAKHLIYITGWSVYAEIALVRDSRRPKPGGDVTIGELLKKKASEGVRVLLLVWDDRTSVDVLKKDGLMATHDEETENFFRGSDVHCILCPRNPDDGGSIVQSLQISTMFTHHQKIVVVDSEMPSRGGSEMRRIVSFVGGIDLCDGRYDTPFHSLFRTLDTVHHDDFHQPNFTGAAITKGGPREPWHDIHSRLEGPIAWDVMYNFEQRWSKQGGKDILVKLRDLSDIIITPSPVMFQEDHDVWNVQLFRSIDGGAAAGFPESPEAAAEAGLVSGKDNIIDRSIQDAYIHAIRRAKDFIYVENQYFLGSSFAWAADGITPEDINALHLIPKELSLKIVSKIEKGEKFRVYVVVPMWPEGLPESGSVQAILDWQRRTMEMMYKDVIQALRAQGLEEDPRNYLTFFCLGNREVKKDGEYEPAEKPDPDTDYMRAQEARRFMIYVHTKMMIVDDEYIIIGSANINQRSMDGARDSEIAMGGYQPHHLSHRQPARGQIHGFRMSLWYEHLGMLDETFLDPSSLECIEKVNRISDKYWDFYSSESLEHDLPGHLLRYPIGVASEGDITELPGFEFFPDTKARILGTKSDYLPPILTT

Variants of: B1
Details: with xlg3_arath XLG3, Q9C516

Effect of a mutation on the interaction, decreasing interaction:
E563A
K564A
F565A
